Test results as given in paper PMC7780100.

Test: 55Fe efflux after 10 µM hepcidin pretreatment, oocytes
Details: glycan lost; control: wild-type mouse Fpn

B1: mouse ferroportin (Fpn): N437D (protein)
parent chain: MTKARDQTHQEGCCGSLANYLTSAKFLLYLGHSLSTWGDRMWHFAVSVFLVELYGNSLLLTAVYGLVVAGSVLVLGAIIGDWVDKNARLKVAQTSLVVQNVSVILCGIILMMVFLHKNELLTMYHGWVLTVCYILIITIANIANLASTATAITIQRDWIVVVAGENRSRLADMNATIRRIDQLTNILAPMAVGQIMTFGSPVIGCGFISGWNLVSMCVEYFLLWKVYQKTPALAVKAALKVEESELKQLTSPKDTEPKPLEGTHLMGEKDSNIRELECEQEPTCASQMAEPFRTFRDGWVSYYNQPVFLAGMGLAFLYMTVLGFDCITTGYAYTQGLSGSILSILMGASAITGIMGTVAFTWLRRKCGLVRTGLFSGLAQLSCLILCVISVFMPGSPLDLSVSPFEDIRSRFVNVEPVSPTTKIPETVFTTEMHMSNMSNVHEMSTKPIPIVSVSLLFAGVIAARIGLWSFDLTVTQLLQENVIESERGIINGVQNSMNYLLDLLHFIMVILAPNPEAFGLLVLISVSFVAMGHLMYFRFAQKTLGNQIFVCGPDEKEVTDENQPNTSVV
other: hepcidin inhibition of transport: no change
